Data from patent publication US20230242674A1 (LANKENAU INSTITUTE FOR MEDICAL RESEARCH, published 2023).

T1: recombinant human IDO2 protein (human, UniProt Q6ZQW0 1-407, limits assumed)
T1 construct: also called human Indoleamine 2,3-Dioxygenase 2; human IDO2 recombinant protein
T1 sequence: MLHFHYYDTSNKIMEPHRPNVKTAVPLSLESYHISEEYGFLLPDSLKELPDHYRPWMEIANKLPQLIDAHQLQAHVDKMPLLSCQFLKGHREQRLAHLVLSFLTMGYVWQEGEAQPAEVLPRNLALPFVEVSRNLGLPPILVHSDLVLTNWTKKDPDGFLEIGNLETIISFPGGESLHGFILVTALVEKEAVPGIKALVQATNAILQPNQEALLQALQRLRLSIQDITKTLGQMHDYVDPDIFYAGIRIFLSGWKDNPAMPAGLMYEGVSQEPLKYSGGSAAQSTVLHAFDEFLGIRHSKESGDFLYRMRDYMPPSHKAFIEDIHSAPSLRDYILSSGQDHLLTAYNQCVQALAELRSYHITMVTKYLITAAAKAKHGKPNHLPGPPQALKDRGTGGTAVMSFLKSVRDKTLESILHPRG

B1: anti-human IDO2 monoclonal antibody 18-1 (antibody, V domains shown)
VH: QVRLQQPGAELVKPGASVKLSCKASGYTFTSYWMHWVKQRPGQGLEWIGEINPSTGRTNYNERFRSKATLTVDKFSTTAYMQFSSLTSEDSAVYYCVGLRFAYWGQGTLVSVSA
VL: DVVMTQTPLSLPVSFGDQVSISCRSSQSLADSYGNTYLSWYLHKPGQSPQLLIYGISNRFSGVPDRFSGSGSGTDFTLKISTIKPEDLGMYYCLQGTHQPLTFGAGTKLELKR
notes: Mouse hybridoma antibody; It was detected with an anti-mouse IgG Fc-specific secondary antibody; also called mAb 18-1

Columns and labels:
[1] = biological target: B1; assay: competitive ELISA; soluble peptide titrated against 1 µg/ml mAb in solution; competitor: coated recombinant human IDO2 (100 ng); plate-bound mAb detected with anti-mouse IgG Fc HRP and ABTS
Method: FIGS. 2A and 2B show results of a competitive ELISA that was developed to test the specificity of the antibodies. 100 ng of the recombinant human IDO2 protein was used to coat the ELISA plate. A constant amount (1 μg/ml) of IDO2 antibody was incubated in solution with specified concentrations of soluble peptide. If the antibody interacted with the soluble peptide, the antibody was then unavailable to bind the coated antigen. Anti-IDO2 Ig that bound the fixed protein was detected with an anti-mouse IgG FC-specific HRP secondary antibody and ABTS substrate. Data is presented as Mean±SD. […] FIG. 2A is a graph of a competitive ELISA comparing the recognition of the three anti-human IDO2 mAbs of FIG. 1 to the human epitope, plotting absorbance vs. epitope peptide concentration. FIG. 2B is a graph of a competitive ELISA comparing the recognition of the three anti-human IDO2 mAbs of FIG. 1 to the mouse epitope, plotting absorbance vs. epitope peptide concentration.
A competitive ELISA was developed to test the specificity of the antibodies. 100 ng of the recombinant human IDO2 protein was used to coat the ELISA plate. A constant amount (1 μg/ml) of IDO2 antibody was incubated in solution with specified concentrations of soluble peptide. […] Anti-IDO2 Ig that bound the fixed protein was detected with an anti-mouse IgG FC-specific HRP secondary antibody and ABTS substrate.

[2] = biological target: T2, mouse IDO1 with V5 tag, expressed in T-REx cells (mouse, UniProt P28776 1-407); assay: Western blot of T-REx cell extracts; HRP secondary antibody, chemiluminescence
T2 construct: Cell extract fractionated for the Western blot; also called murine IDO1; not shown: V5 tag
T2 sequence (P28776 whole entry): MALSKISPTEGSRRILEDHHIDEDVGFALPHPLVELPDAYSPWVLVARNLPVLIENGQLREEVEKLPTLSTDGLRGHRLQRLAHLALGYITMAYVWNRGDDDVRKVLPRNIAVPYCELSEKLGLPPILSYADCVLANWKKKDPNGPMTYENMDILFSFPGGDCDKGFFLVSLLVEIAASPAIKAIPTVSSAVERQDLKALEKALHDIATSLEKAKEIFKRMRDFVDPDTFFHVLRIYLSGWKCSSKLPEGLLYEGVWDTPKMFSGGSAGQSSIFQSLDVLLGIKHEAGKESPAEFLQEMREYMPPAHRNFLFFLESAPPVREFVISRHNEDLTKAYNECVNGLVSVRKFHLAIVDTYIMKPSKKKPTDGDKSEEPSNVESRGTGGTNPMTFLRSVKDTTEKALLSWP
Method: (§1) FIG. 3 is a Western blot analysis using IDO-expressing Tᵣₑₓ cells. All IDO expressed proteins mouse and human IDO 1 and IDO2 contain a V5 tag. […] Cell extracts for IDO expressing cells or the parental T-REX line were prepared and fractionated as previously described (PMID: 17671174 & 26717206). Detection of indicated proteins was done using standard blotting methods, HRP conjugated secondary antibodies and chemiluminescence detection reagents.
as §1, with “A” for “FIG. 3 is a”, “analysis was conducted” for “analysis”, “containing” for “contain”, “(See US2019/0062452, incorporated by reference herein).” for “(PMID: 17671174 & 26717206).”

[3] = biological target: T3, human IDO1 with V5 tag, expressed in T-REx cells (human, UniProt P14902 1-403); assay: as above
T3 construct: Cell extract fractionated for the Western blot; not shown: V5 tag
T3 sequence (P14902 whole entry): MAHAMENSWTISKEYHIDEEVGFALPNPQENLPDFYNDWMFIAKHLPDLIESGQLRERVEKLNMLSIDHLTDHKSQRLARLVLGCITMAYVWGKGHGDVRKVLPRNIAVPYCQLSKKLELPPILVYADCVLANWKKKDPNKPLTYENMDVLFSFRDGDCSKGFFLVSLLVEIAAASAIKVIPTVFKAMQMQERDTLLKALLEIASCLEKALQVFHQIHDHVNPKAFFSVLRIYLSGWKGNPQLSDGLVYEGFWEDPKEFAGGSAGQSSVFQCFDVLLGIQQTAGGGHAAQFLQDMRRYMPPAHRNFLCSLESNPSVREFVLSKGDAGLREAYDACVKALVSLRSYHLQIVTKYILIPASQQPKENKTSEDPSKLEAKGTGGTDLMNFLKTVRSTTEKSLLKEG
Method: as §1
as §1, with “A” for “FIG. 3 is a”, “analysis was conducted” for “analysis”, “containing” for “contain”, “(See US2019/0062452, incorporated by reference herein).” for “(PMID: 17671174 & 26717206).”

[4] = biological target: T1, recombinant human IDO2 protein; assay: ELISA; plate coated with 100 ng recombinant human IDO2; detection with anti-mouse IgG Fc-specific HRP and ABTS
Method: (§2) FIG. 1 is a graph showing the binding curves of three anti-human IDO2 monoclonal antibodies 13-3, 18-1 and 20-10 described herein and their binding concentrations vs. human IDO2 recombinant protein. Three cloned hybridomas were generated against the human IDO2 amino acids #331-351 (NP 919270; SEQ ID NO: 23). ELISA analysis compares the binding of the anti-human IDO2 antibodies (mAbs) to recombinant human IDO2 protein (100 ng of recombinant human IDO2 protein was used to coat the ELISA plate). Increasing concentrations of mAb were incubated with the coated protein and anti-IDO2 Ig that bound the fixed protein was detected with an anti-mouse IgG Fc-specific HRP secondary antibody and ABTS substrate. Data is presented as Mean±SD.
as §2, with “Three” for “FIG. 1 is a graph showing the binding curves of three anti-human IDO2 monoclonal antibodies 13-3, 18-1 and 20-10 described herein and their binding concentrations vs. human IDO2 recombinant protein. Three”, “substrate.” for “substrate. Data is presented as Mean±SD.”

| IC50 (read off the curve) [1] | binding result [2] | binding result [3] | EC50 (read off the curve) [4] | Binder |
| --- | --- | --- | --- | --- |
| ~7 µM |  |  |  | RDYILSSGQDHLLTAYNQCVQ (also called hIDO2 Peptide) [Human Epitope] |
|  | no binding | no binding | ~0.01 µg/mL | anti-human IDO2 monoclonal antibody 13-3 (antibody, V domains shown, Mouse hybridoma antibody raised against human IDO2 amino acids 331-351; It was detected with an anti-mouse IgG Fc-specific secondary antibody; also called mAb 13-3) VH: QVRLQQPGAELVKPGASVKLSCKASGYTFTSYWMHWVKQRPGQGLEWIGEINPSTGRTNYNERFRSKATLTVDKFSTTAYMQFSSLTSEDSAVYYCVGLRFAYWGQGTLVSVSA VL: DVVMTQTPLSLPVSFGDQVSISCRSSQSLADSYGNTYLSWYLHKPGQSPQLLIYGISNRFSGVPDRFSGSGSGTDFTLKISTIKPEDLGMYYCLQGTHQPLTFGAGTKLELKR |
|  | no binding | no binding | ~0.02 µg/mL | anti-human IDO2 monoclonal antibody 20-10 (antibody, V domains shown, Mouse hybridoma antibody; It was detected with an anti-mouse IgG Fc-specific secondary antibody; also called mAb 20-10) VH: QVRLQQPGAELVKPGASVKLSCKASGYTFTSYWMHWVKQRPGQGLEWIGEINPSTGRTNYNERFRSKATLTVDKFSTTAYMQFSSLTSEDSAVYYCVGLRFAYWGQGTLVSVSA VL: DVVMTQTPLSLPVSFGDQVSISCRSSQSLADSYGNTYLSWYLHKPGQSPQLLIYGISNRFSGVPDRFSGSGSGTDFTLKISTIKPEDLGMYYCLQGTHQPLTFGAGTKLELKR |
|  | no binding | no binding | ~0.02 µg/mL | B1 |
| ~9 µM |  |  |  | RDYILASGPGDCLMAYNQCVE [murine IDO2 epitope peptide (amino acids 331-351 of murine IDO2)] |
